Measured values as given in patent US10329548B2, “Fungal cellobiohydrolases” (Alliance for Sustainable Energy, LLC, priority 2017, dated 2019).

Legend:
Assay type in all cases: biochemical, Trichoderma reesei
[1] = substrate: [H][C@@]1(O[C@H]2[C@H](O)[C@@H](O)[C@H](Oc3ccc([N+](=O)[O-])cc3)O[C@@H]2CO)O[C@H](CO)[C@H](O)[C@H](O)[C@H]1O; test: pNP-Lactopyranoside (pNP-L) assay, kinetics, TrCel7A 1-1d; conditions: other: TrCel7A 1-1d, 45° C., 30 minutes, pNP-L 8 mM-0.133 mM
Excerpt: (§1) The wild-type (wt) TrCel7A sequence was aligned with all the high-pNP-L activity sequences in order to identify the corresponding positions of mutations in TrCel7A. Without being bound by theory, these mutations should result in improving pNP-L activity of TrCel7A. PCR-based point mutagenesis or gene synthesis was used to generate the corresponding 9 TrCel7A mutants.
(§2) Cel7A was purified as described in Linger et al., Biotechnol Biofuels 8:45 (2015). Briefly, fermentation broths (˜8 to 10 L) were harvested, vacuum filtered, concentrated, and then loaded onto a 26/10 Phenyl Sepharose Fast Flow column. Buffer A was 20 mM Bis-Tris pH 6.5 and buffer B was 20 mM Bis-Tris pH 6.5, 2.0 M (NH4)2SO4. After binding and washing, a descending gradient of 80% B (1.6 M (NH4)2SO4) to 0% B over eight column volumes was used to elute the bound proteins from the column. Active fractions were identified by a p-nitrophenyl-β-(1-4)-D-lactopyranoside (pNP-L) activity assay. The pNP-L-active fractions were pooled and concentrated as needed. Protein was desalted and exchanged into 20 mM Bis-Tris buffer pH 6.5. […]
(§3) The pNP-L assay was performed by incubating 150 μL of 2 mM pNP-L with 25 μL of sample at 45° C. for 30 minutes. Reactions were quenched with 25 μL of 1 M Na2CO3, and the absorbance at 405 nm was measured. […]

[2] = substrate: [H][C@@]1(O[C@H]2[C@H](O)[C@@H](O)[C@H](Oc3ccc([N+](=O)[O-])cc3)O[C@@H]2CO)O[C@H](CO)[C@H](O)[C@H](O)[C@H]1O; test: pNP-Lactopyranoside (pNP-L) assay, kinetics, TrCel7A 6-87a; conditions: other: TrCel7A 6-87a, 45° C., 30 minutes, pNP-L 8 mM-0.133 mM
Excerpt: as §1, §2, §3

[3] = substrate: [H][C@@]1(O[C@H]2[C@H](O)[C@@H](O)[C@H](Oc3ccc([N+](=O)[O-])cc3)O[C@@H]2CO)O[C@H](CO)[C@H](O)[C@H](O)[C@H]1O; test: pNP-Lactopyranoside (pNP-L) assay, kinetics, TrCel7A 11-35a; conditions: other: TrCel7A 11-35a, 45° C., 30 minutes, pNP-L 8 mM-0.133 mM
Excerpt: as §1, §2, §3

[4] = substrate: [H][C@@]1(O[C@H]2[C@H](O)[C@@H](O)[C@H](Oc3ccc([N+](=O)[O-])cc3)O[C@@H]2CO)O[C@H](CO)[C@H](O)[C@H](O)[C@H]1O; test: pNP-Lactopyranoside (pNP-L) assay, kinetics, TrCel7A 6-53a; conditions: other: TrCel7A 6-53a, 45° C., 30 minutes, pNP-L 8 mM-0.133 mM
Excerpt: as §1, §2, §3

[5] = substrate: [H][C@@]1(O[C@H]2[C@H](O)[C@@H](O)[C@H](Oc3ccc([N+](=O)[O-])cc3)O[C@@H]2CO)O[C@H](CO)[C@H](O)[C@H](O)[C@H]1O; test: pNP-Lactopyranoside (pNP-L) assay, kinetics, TrCel7A 2-18c; conditions: other: TrCel7A 2-18c, 45° C., 30 minutes, pNP-L 8 mM-0.133 mM
Excerpt: as §1, §2, §3

[6] = substrate: [H][C@@]1(O[C@H]2[C@H](O)[C@@H](O)[C@H](Oc3ccc([N+](=O)[O-])cc3)O[C@@H]2CO)O[C@H](CO)[C@H](O)[C@H](O)[C@H]1O; test: pNP-Lactopyranoside (pNP-L) assay, kinetics, TrCel7A WT; conditions: other: TrCel7A WT, 45° C., 30 minutes, pNP-L 8 mM-0.133 mM
Method: as §2, with “6.5. This sample was then loaded onto a Tricorn 10/100 anion exchange column packed with Source 15Q and eluted with a 0-50% salt gradient over 30 column volumes. Buffers were 20 mM Bis-Tris pH 6.5 (A) and the same supplemented with 1.0 M NaCl (B). pNP-L activity was followed again to identify the active fractions.” for “6.5.”
as §3

[7] = substrate: [H][C@@]1(O[C@H]2[C@H](O)[C@@H](O)[C@H](Oc3ccc([N+](=O)[O-])cc3)O[C@@H]2CO)O[C@H](CO)[C@H](O)[C@H](O)[C@H]1O; test: pNP-Lactopyranoside (pNP-L) assay, kinetics, TrCel7A 1-11; conditions: other: TrCel7A 1-11, 45° C., 30 minutes, pNP-L 8 mM-0.133 mM
Excerpt: as §1, §2, §3

B1: Trichoderma reesei Cel7A (TrCel7A, SEQ ID NO: 37) variant 1-1d, A241V (with secretion signal) / A224V (without secretion signal) (Trichoderma reesei RUT C-30; … (protein)
chain: QSACTLQSETHPPLTWQKCSSGGTCTQQTGSVVIDANWRWTHATNSSTNCYDGNTWSSTLCPDNETCAKNCCLDGAAYASTYGVTTSGNSLSIGFVTQSAQKNVGARLYLMASDTTYQEFTLLGNEFSFDVDVSQLPCGLNGALYFVSMDADGGVSKYPTNTAGAKYGTGYCDSQCPRDLKFINGQANVEGWEPSSNNANTGIGGHGSCCSEMDIWEANSISEVLTPHPCTTVGQEICEGDGCGGTYSDNRYGGTCDPDGCDWNPYRLGNTSFYGPGSSFTLDTTKKLTVVTQFETSGAINRYYVQNGVTFQQPNAELGSYSGNELNDDYCTAEEAEFGGSSFSDKGGLTQFKKATSGGMVLVMSLWDDYYANMLWLDSTYPTNETSSTPGAVRGSCSTSSGVPAQVESQSPNAKVTFSNIKFGPIGSTGNPSGGNPPGGNPPGTTTTRRPATTTGSSPGPTQSHYGQCGGIGYSGPTVCASGTTCQVLNPYYSQCL
kcat [1]: 0.933 ± 0.0667 s⁻¹

B2: Trichoderma reesei Cel7A (TrCel7A, SEQ ID NO: 37) variant 6-87a, D274V (with secretion signal) / D257V (without secretion signal) (Trichoderma reesei RUT C-30; … (protein)
chain: QSACTLQSETHPPLTWQKCSSGGTCTQQTGSVVIDANWRWTHATNSSTNCYDGNTWSSTLCPDNETCAKNCCLDGAAYASTYGVTTSGNSLSIGFVTQSAQKNVGARLYLMASDTTYQEFTLLGNEFSFDVDVSQLPCGLNGALYFVSMDADGGVSKYPTNTAGAKYGTGYCDSQCPRDLKFINGQANVEGWEPSSNNANTGIGGHGSCCSEMDIWEANSISEALTPHPCTTVGQEICEGDGCGGTYSDNRYGGTCVPDGCDWNPYRLGNTSFYGPGSSFTLDTTKKLTVVTQFETSGAINRYYVQNGVTFQQPNAELGSYSGNELNDDYCTAEEAEFGGSSFSDKGGLTQFKKATSGGMVLVMSLWDDYYANMLWLDSTYPTNETSSTPGAVRGSCSTSSGVPAQVESQSPNAKVTFSNIKFGPIGSTGNPSGGNPPGGNPPGTTTTRRPATTTGSSPGPTQSHYGQCGGIGYSGPTVCASGTTCQVLNPYYSQCL
kcat [2]: 0.4 ± 0.0667 s⁻¹

B3: Trichoderma reesei Cel7A (TrCel7A, SEQ ID NO: 37) variant 11-35a, G461D (with secretion signal) / G444D (without secretion signal) (Trichoderma reesei RUT … (protein)
chain: QSACTLQSETHPPLTWQKCSSGGTCTQQTGSVVIDANWRWTHATNSSTNCYDGNTWSSTLCPDNETCAKNCCLDGAAYASTYGVTTSGNSLSIGFVTQSAQKNVGARLYLMASDTTYQEFTLLGNEFSFDVDVSQLPCGLNGALYFVSMDADGGVSKYPTNTAGAKYGTGYCDSQCPRDLKFINGQANVEGWEPSSNNANTGIGGHGSCCSEMDIWEANSISEALTPHPCTTVGQEICEGDGCGGTYSDNRYGGTCDPDGCDWNPYRLGNTSFYGPGSSFTLDTTKKLTVVTQFETSGAINRYYVQNGVTFQQPNAELGSYSGNELNDDYCTAEEAEFGGSSFSDKGGLTQFKKATSGGMVLVMSLWDDYYANMLWLDSTYPTNETSSTPGAVRGSCSTSSGVPAQVESQSPNAKVTFSNIKFGPIGSTGNPSGGNPPGGNPPDTTTTRRPATTTGSSPGPTQSHYGQCGGIGYSGPTVCASGTTCQVLNPYYSQCL
kcat [3]: 0.183 s⁻¹

B4: Trichoderma reesei Cel7A (TrCel7A, SEQ ID NO: 37) variant 6-53a, I110M/Y283N/T462I (with secretion signal) / I93M/Y266N/T445I (without secretion signal) … (protein)
chain: QSACTLQSETHPPLTWQKCSSGGTCTQQTGSVVIDANWRWTHATNSSTNCYDGNTWSSTLCPDNETCAKNCCLDGAAYASTYGVTTSGNSLSMGFVTQSAQKNVGARLYLMASDTTYQEFTLLGNEFSFDVDVSQLPCGLNGALYFVSMDADGGVSKYPTNTAGAKYGTGYCDSQCPRDLKFINGQANVEGWEPSSNNANTGIGGHGSCCSEMDIWEANSISEALTPHPCTTVGQEICEGDGCGGTYSDNRYGGTCDPDGCDWNPNRLGNTSFYGPGSSFTLDTTKKLTVVTQFETSGAINRYYVQNGVTFQQPNAELGSYSGNELNDDYCTAEEAEFGGSSFSDKGGLTQFKKATSGGMVLVMSLWDDYYANMLWLDSTYPTNETSSTPGAVRGSCSTSSGVPAQVESQSPNAKVTFSNIKFGPIGSTGNPSGGNPPGGNPPGITTTRRPATTTGSSPGPTQSHYGQCGGIGYSGPTVCASGTTCQVLNPYYSQCL
kcat [4]: 0.35 ± 0.05 s⁻¹

B5: Trichoderma reesei Cel7A (TrCel7A, SEQ ID NO: 37) variant 2-18c, T406S/A389V (with secretion signal) / T389S/A372V (without secretion signal) (Trichoderma … (protein)
chain: QSACTLQSETHPPLTWQKCSSGGTCTQQTGSVVIDANWRWTHATNSSTNCYDGNTWSSTLCPDNETCAKNCCLDGAAYASTYGVTTSGNSLSIGFVTQSAQKNVGARLYLMASDTTYQEFTLLGNEFSFDVDVSQLPCGLNGALYFVSMDADGGVSKYPTNTAGAKYGTGYCDSQCPRDLKFINGQANVEGWEPSSNNANTGIGGHGSCCSEMDIWEANSISEALTPHPCTTVGQEICEGDGCGGTYSDNRYGGTCDPDGCDWNPYRLGNTSFYGPGSSFTLDTTKKLTVVTQFETSGAINRYYVQNGVTFQQPNAELGSYSGNELNDDYCTAEEAEFGGSSFSDKGGLTQFKKATSGGMVLVMSLWDDYYVNMLWLDSTYPTNETSSSPGAVRGSCSTSSGVPAQVESQSPNAKVTFSNIKFGPIGSTGNPSGGNPPGGNPPGTTTTRRPATTTGSSPGPTQSHYGQCGGIGYSGPTVCASGTTCQVLNPYYSQCL
Km [5]: 1980 ± 180 µM
kcat [5]: 0.467 ± 0.117 s⁻¹

B6: Trichoderma reesei Cel7A (TrCel7A) wild-type, SEQ ID NO: 37 (Trichoderma reesei RUT C-30) (protein)
chain: QSACTLQSETHPPLTWQKCSSGGTCTQQTGSVVIDANWRWTHATNSSTNCYDGNTWSSTLCPDNETCAKNCCLDGAAYASTYGVTTSGNSLSIGFVTQSAQKNVGARLYLMASDTTYQEFTLLGNEFSFDVDVSQLPCGLNGALYFVSMDADGGVSKYPTNTAGAKYGTGYCDSQCPRDLKFINGQANVEGWEPSSNNANTGIGGHGSCCSEMDIWEANSISEALTPHPCTTVGQEICEGDGCGGTYSDNRYGGTCDPDGCDWNPYRLGNTSFYGPGSSFTLDTTKKLTVVTQFETSGAINRYYVQNGVTFQQPNAELGSYSGNELNDDYCTAEEAEFGGSSFSDKGGLTQFKKATSGGMVLVMSLWDDYYANMLWLDSTYPTNETSSTPGAVRGSCSTSSGVPAQVESQSPNAKVTFSNIKFGPIGSTGNPSGGNPPGGNPPGTTTTRRPATTTGSSPGPTQSHYGQCGGIGYSGPTVCASGTTCQVLNPYYSQCL
kcat [6]: 0.333 ± 0.0167 s⁻¹

B7: Trichoderma reesei Cel7A (TrCel7A, SEQ ID NO: 37) variant 1-11, L366M (with secretion signal) / L349M (without secretion signal) (Trichoderma reesei RUT C-30; … (protein)
chain: QSACTLQSETHPPLTWQKCSSGGTCTQQTGSVVIDANWRWTHATNSSTNCYDGNTWSSTLCPDNETCAKNCCLDGAAYASTYGVTTSGNSLSIGFVTQSAQKNVGARLYLMASDTTYQEFTLLGNEFSFDVDVSQLPCGLNGALYFVSMDADGGVSKYPTNTAGAKYGTGYCDSQCPRDLKFINGQANVEGWEPSSNNANTGIGGHGSCCSEMDIWEANSISEALTPHPCTTVGQEICEGDGCGGTYSDNRYGGTCDPDGCDWNPYRLGNTSFYGPGSSFTLDTTKKLTVVTQFETSGAINRYYVQNGVTFQQPNAELGSYSGNELNDDYCTAEEAEFGGSSFSDKGGMTQFKKATSGGMVLVMSLWDDYYANMLWLDSTYPTNETSSTPGAVRGSCSTSSGVPAQVESQSPNAKVTFSNIKFGPIGSTGNPSGGNPPGGNPPGTTTTRRPATTTGSSPGPTQSHYGQCGGIGYSGPTVCASGTTCQVLNPYYSQCL
kcat [7]: 0.182 ± 0.00333 s⁻¹
